This is an account of results in the supplement of paper PMC10567573.

B1: MCOLN1 (parent)
chain: EEEDLRRRLKYFFMSPCDKFRAKG
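Note: lentivirally expressed fusions sorted by FACS into six bins by GFP to DsRed ratio, PSI derived from sequencing read proportions per bin multiplied by bin number.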

The data set covers variants of B1. Briefly: protein stability index of a GFP-peptide fusion (GPS, HEK-293T) (PSI 1-6); higher = more stable. The following applies: c terminus: a fixed tail appended.
In the case of EEEDLRRRLKYFFMSICDKFRAKG [P16I], the protein stability index was found to be 1.95.

Consider EEEDLRRRLKYFFMSSCDKFRAKG [P16S], for which the protein stability index was 2.81.

On to EEEDLRRRLKYFFMSFCDKFRAKG [P16F], for which the protein stability index worked out at 2.2.

Regarding EEEDLRRRLKYFFMSVCDKFRAKG [P16V], the protein stability index worked out at 2.12.

Take EEEDLRRRLKYFFMSPADKFRAKG [C17A]: the protein stability index was found to be 2.21.

For EEEDLRRRLKYFFMSPRDKFRAKG [C17R], the protein stability index amounted to 1.58.

Regarding EEEDLRRRLKYFFMSPHDKFRAKG [C17H], the protein stability index was 2.61.

For EEEDLRRRLKYFFMSPVDKFRAKG [C17V], the protein stability index was 2.53.

With EEEDLRRRLKYFFMSPIDKFRAKG [C17I], the protein stability index amounted to 2.59.

Regarding EEEDLRRRLKYFFMSPQDKFRAKG [C17Q], the protein stability index is 3.58.

Consider EEEDLRRELKYFFMSPCDKFRAKG [R8E], for which the protein stability index was found to be 3.21.

Take EEEDLRRVLKYFFMSPCDKFRAKG [R8V]: the protein stability index turned out to be 2.62.

For EEEDLRRKLKYFFMSPCDKFRAKG [R8K], the protein stability index stood at 2.71.

Regarding EEEDLRRGLKYFFMSPCDKFRAKG [R8G], the protein stability index stood at 2.97.

Take EEEDLRRYLKYFFMSPCDKFRAKG [R8Y]: the protein stability index stood at 1.64.

Consider EEEDLRRWLKYFFMSPCDKFRAKG [R8W], for which the protein stability index turned out to be 2.42.

For EEEDLRRILKYFFMSPCDKFRAKG [R8I], the protein stability index is 1.76.

EEEDLRRALKYFFMSPCDKFRAKG [R8A]: the protein stability index amounted to 2.

As for EEEDLRRHLKYFFMSPCDKFRAKG [R8H], the protein stability index was 2.35.

As for EEEDLRRNLKYFFMSPCDKFRAKG [R8N], the protein stability index stood at 3.29.

As for EEEDLRRRLKYFFMSPCDKTRAKG [F20T], the protein stability index was determined as 3.45.

Take EEEDLRRRLKYFFMSPCDKKRAKG [F20K]: the protein stability index came out at 3.58.

For the variant EEEDLRRRLKYFFMSPCDKSRAKG [F20S], the protein stability index was found to be 3.58.

For the variant EEEDLRRRLKYFFMSPCDKARAKG [F20A], the protein stability index came to 3.82.

On to EEEDLRRRLKYFFMSPCDKNRAKG [F20N], for which the protein stability index came out at 3.62.

Turning to EEEDLRRRLKYFFMSPCDKMRAKG [F20M], the protein stability index was found to be 2.77.

With EEEDLRRRLKYFFMSPCDKLRAKG [F20L], the protein stability index came to 3.33.

Take EEEDLRRRLKYFFMSPCDKYRAKG [F20Y]: the protein stability index amounted to 2.28.

Take EECDLRRRLKYFFMSPCDKFRAKG [E3C]: the protein stability index amounted to 2.65.

With EELDLRRRLKYFFMSPCDKFRAKG [E3L], the protein stability index came out at 1.37.

In the case of EESDLRRRLKYFFMSPCDKFRAKG [E3S], the protein stability index was 2.9.

Consider EEKDLRRRLKYFFMSPCDKFRAKG [E3K], for which the protein stability index was determined as 1.87.

Take EEDDLRRRLKYFFMSPCDKFRAKG [E3D]: the protein stability index stood at 2.41.

On to EEEDLRRRLKYFFMSPCPKFRAKG [D18P], for which the protein stability index was 1.73.

Consider EEEDLRRRLKYFFMSPCHKFRAKG [D18H], for which the protein stability index was 2.05.

In the case of EEEDLRRRLKYFFMSPCNKFRAKG [D18N], the protein stability index stood at 1.77.

EEEDLRRRLKYFFMSPCIKFRAKG [D18I]: the protein stability index was 2.49.

As for EEEDLRRRLKYFFMSPCCKFRAKG [D18C], the protein stability index stood at 1.83.

In the case of EEEDLIRRLKYFFMSPCDKFRAKG [R6I], the protein stability index is 2.

On to EEEDLERRLKYFFMSPCDKFRAKG [R6E], for which the protein stability index worked out at 3.48.

EEEDLPRRLKYFFMSPCDKFRAKG [R6P]: the protein stability index was 2.11.

In the case of EEEDLVRRLKYFFMSPCDKFRAKG [R6V], the protein stability index amounted to 2.34.

Turning to EEEDLTRRLKYFFMSPCDKFRAKG [R6T], the protein stability index amounted to 2.66.

For EEEDLCRRLKYFFMSPCDKFRAKG [R6C], the protein stability index came to 2.85.

With EEEDLFRRLKYFFMSPCDKFRAKG [R6F], the protein stability index stood at 1.59.

For the variant EEEDLGRRLKYFFMSPCDKFRAKG [R6G], the protein stability index was 2.99.

As to EEEDLMRRLKYFFMSPCDKFRAKG [R6M], the protein stability index came out at 1.42.

With EEEDLNRRLKYFFMSPCDKFRAKG [R6N], the protein stability index amounted to 3.78.

As to EEEDLRRRLKYFFMSPCDKFRARG [K23R], the protein stability index was found to be 2.65.

With EEEDLRRRLKYFFMSPCDKFRAWG [K23W], the protein stability index turned out to be 1.2.

EEEDLRRRLKYFFMSPCDKFRAAG [K23A]: the protein stability index came to 2.78.

On to EEEDLRRRLKYFFMSPCDKFRAYG [K23Y], for which the protein stability index came out at 1.53.

On to EEEDLRRRLKYFFMSPCDKFRASG [K23S], for which the protein stability index was 2.26.

EEEDLRRRLKYFFMSPCDKFRAIG [K23I]: the protein stability index worked out at 2.01.

As to EEEDLRRRLKYFFMSPCDKFRAGG [K23G], the protein stability index came out at 1.84.

On to EEEDLRRRLKYFFMSPCDKFRANG [K23N], for which the protein stability index is 2.56.

On to EEEDLRRRLKYFFMSPCDKFRAPG [K23P], for which the protein stability index stood at 2.5.

As to EEEDLRIRLKYFFMSPCDKFRAKG [R7I], the protein stability index was determined as 2.39.

EEEDLRCRLKYFFMSPCDKFRAKG [R7C]: the protein stability index was 2.38.

EEEDLRSRLKYFFMSPCDKFRAKG [R7S]: the protein stability index came out at 2.82.

As to EEEDLRPRLKYFFMSPCDKFRAKG [R7P], the protein stability index was found to be 3.33.

As for EEEDLRKRLKYFFMSPCDKFRAKG [R7K], the protein stability index amounted to 2.63.

On to KEEDLRRRLKYFFMSPCDKFRAKG [E1K], for which the protein stability index is 1.76.

As for IEEDLRRRLKYFFMSPCDKFRAKG [E1I], the protein stability index worked out at 2.19.

As for GEEDLRRRLKYFFMSPCDKFRAKG [E1G], the protein stability index worked out at 2.46.

As to WEEDLRRRLKYFFMSPCDKFRAKG [E1W], the protein stability index was determined as 2.2.

On to AEEDLRRRLKYFFMSPCDKFRAKG [E1A], for which the protein stability index came out at 2.53.

In the case of HEEDLRRRLKYFFMSPCDKFRAKG [E1H], the protein stability index was found to be 3.05.

Consider PEEDLRRRLKYFFMSPCDKFRAKG [E1P], for which the protein stability index was 2.14.

On to NEEDLRRRLKYFFMSPCDKFRAKG [E1N], for which the protein stability index turned out to be 1.51.

For the variant EEEDLRRRLKYFFMSPCDKFRAKA [G24A], the protein stability index was 2.43.

For the variant EEEDLRRRLKYFFMSPCDKFRAKD [G24D], the protein stability index was determined as 2.4.

Take EEEDLRRRLKYFFMSPCDKFRAKC [G24C]: the protein stability index stood at 1.82.

Regarding EEEDLRRRLKYFFMSPCDKFRAKQ [G24Q], the protein stability index turned out to be 4.48.

Consider EEEDLRRRLKYFFMSPCDKFRAKP [G24P], for which the protein stability index stood at 2.4.

EEEDLRRRLKYFFMSPCDKFRAKH [G24H]: the protein stability index came out at 2.07.

On to EEEDLRRRLKYFFMSPCDKFRAKF [G24F], for which the protein stability index is 1.8.

As for EEEDLRRRLKYFFMSPCDKFRAKW [G24W], the protein stability index turned out to be 1.33.

On to EEEDLRRRLKYFFMSPCDKFRAKV [G24V], for which the protein stability index worked out at 2.29.

Regarding EEEDLRRRLKYFFMSPCDKFRAKR [G24R], the protein stability index came to 1.73.

Turning to EEEDLRRRLKYFFMSPCDKFRAKL [G24L], the protein stability index was 2.55.

Turning to EEEDLRRRLKYFFMSPCDKFRAKY [G24Y], the protein stability index amounted to 1.78.

For EEEDLRRRLKYTFMSPCDKFRAKG [F12T], the protein stability index is 3.62.

Take EEEDLRRRLKYIFMSPCDKFRAKG [F12I]: the protein stability index worked out at 2.93.

As for EEEDLRRRLKYLFMSPCDKFRAKG [F12L], the protein stability index amounted to 3.73.

Consider EEEDLRRRLKYYFMSPCDKFRAKG [F12Y], for which the protein stability index came to 2.69.

As for EEEDLRRRLKYPFMSPCDKFRAKG [F12P], the protein stability index came to 3.56.

Regarding EEEDLRRRLKYNFMSPCDKFRAKG [F12N], the protein stability index stood at 4.11.

Regarding EEEDLRRRLKYSFMSPCDKFRAKG [F12S], the protein stability index came to 3.58.

As to EEEDLRRRLKYCFMSPCDKFRAKG [F12C], the protein stability index is 3.27.

EEEDLRRRLKYDFMSPCDKFRAKG [F12D]: the protein stability index is 3.61.

Consider EEEDYRRRLKYFFMSPCDKFRAKG [L5Y], for which the protein stability index stood at 2.45.

With EEEDCRRRLKYFFMSPCDKFRAKG [L5C], the protein stability index was 2.82.

Consider EEEDERRRLKYFFMSPCDKFRAKG [L5E], for which the protein stability index worked out at 3.53.
